The supplement of paper PMC7877785
± gives the uncertainty stated by the source.

Experiment: self-splicing fitness, log relative to wild type (ln ratio); higher = more splicing; Tetrahymena group I intron in knt gene, E. coli kanamycin selection, DiMSum; sequences stand for … in CUCUCU…GGAGGGAAAAGUUAUCAGGCAUGCACCUGGUAGCUAGUCUUUAAACCAAUAGAUUGCAUCGGUUUAAAAGGCAAGACCGUCAAAUUGCGGGAAAGGGGUCAACAGCCGUUCAGUACCAAGUCUCAGGGGAAACUUUGAGAUGGCCUUGCAAAGGGUAUGGUAAUAAGCUGACGGACAUGGUCCUAACCACGCAGCCAAGUCCUAAGUCAACAGAUCUUCUGUUGAUAUGGAUGCAGUUCACAGACUAAAUGUCGGUCGGGGAAGAUGUAUUCUUCUCAUAAGAUAUAGUCGGACCUCUCCUUAAUGGGAGCUAGCGGAUGAAGUGAUGCAACACUGGAGCCGCUGGGAACUAAUUUGUAUGCGAAAGUAUAUUGAUUAGUUUUGGAGUACUCGUGGUCG
Summary of the method: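 DiMSum derived fitness as the error-weighted combination of fold changes across replicates, kanamycin versus no kanamycin, normalised to wild type. E. coli BL21(DE3) held the library, which randomised all eight P1ex-region intron nucleotides within the knt kanamycin-resistance gene on pET-22b(+). Six replicate transformations grew overnight at 37°C or 30°C on LB agar with or without 25 μg/mL kanamycin, also containing 100 μg/mL carbenicillin, 50 μM IPTG and 0.2% rhamnose, and pooled colonies were amplicon-sequenced on an Illumina HiSeq 2500.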

Sequence | self-splicing fitness (ln) (30 °C) | self-splicing fitness (ln) (37 °C)
ACGUAGCAAUAUUACGGCUU | 0.0669 ± 0.089 | 0.194 ± 0.11
UUGAAGCAAUAUUACGUAAA | -1.42 ± 0.062 | -0.368 ± 0.081
ACGCAGCAAUAUUACGUUGU | -3.57 ± 0.13 | -2.84 ± 0.12
AAGUAGCAAUAUUACGAAUG | -3.14 ± 0.24 | -1.72 ± 0.14
GCCUAGCAAUAUUACGGAAC | -0.183 ± 0.091 | 0.0968 ± 0.16
GUUGAGCAAUAUUACGACGG | -3.52 ± 0.3 | -1.12 ± 0.28
AAUUAGCAAUAUUACGUAUC | -2.2 ± 0.15 | -0.0316 ± 0.13
UAUAAGCAAUAUUACGUUGA | -3.52 ± 0.22 | -1.25 ± 0.12
CGGAAGCAAUAUUACGUUAU | -3.02 ± 0.21 | -2.3 ± 0.28
GAAGAGCAAUAUUACGGGGC | -3.46 ± 0.28 | -2.28 ± 0.26
ACAGAGCAAUAUUACGAGCG | -3.08 ± 0.14 | -2.51 ± 0.19
UGCUAGCAAUAUUACGUAGG | -2.18 ± 0.14 | -0.778 ± 0.2
AAGCAGCAAUAUUACGCUGC | -3.47 ± 0.13 | -3.05 ± 0.18
UAAAAGCAAUAUUACGACGC | -2.67 ± 0.18 | -0.32 ± 0.15
AAGUAGCAAUAUUACGAGCU | -0.679 ± 0.057 | -0.289 ± 0.087
AUAAAGCAAUAUUACGACGU | 0.742 ± 0.063 | 0.786 ± 0.074
ACUGAGCAAUAUUACGCCUU | -1.55 ± 0.2 | -0.418 ± 0.24
GUUGAGCAAUAUUACGUAUG | -2.76 ± 0.34 | -1.52 ± 0.29
AUUCAGCAAUAUUACGAAGG | -1.02 ± 0.087 | -0.355 ± 0.12

Sequence | self-splicing fitness (ln) (30 °C) | self-splicing fitness (ln) (37 °C)
AUUUAGCAAUAUUACGACUG | -2 ± 0.17 | -1.41 ± 0.16
AUAGAGCAAUAUUACGACGG | -2.52 ± 0.18 | -0.742 ± 0.26
UAAGAGCAAUAUUACGAGCA | -3.18 ± 0.29 | -0.84 ± 0.14
CCUGAGCAAUAUUACGUUCG | -3.43 ± 0.26 | -2.87 ± 0.38
AGUUAGCAAUAUUACGUGGU | -3.34 ± 0.15 | -3.35 ± 0.23
CUGCAGCAAUAUUACGCAGA | -2.32 ± 0.31 | -2.97 ± 0.38
UGUGAGCAAUAUUACGUAGC | -4.22 ± 0.42 | -1.65 ± 0.29
GUCCAGCAAUAUUACGACCU | -2.17 ± 0.19 | -1.13 ± 0.2
UGGAAGCAAUAUUACGGGAA | -2.15 ± 0.21 | -1.19 ± 0.16
AGAAAGCAAUAUUACGGUUU | -0.927 ± 0.068 | -0.0576 ± 0.082
CUGUAGCAAUAUUACGAGGC | -3.31 ± 0.37 | -3.04 ± 0.32
UGCUAGCAAUAUUACGACUG | 0.165 ± 0.081 | 0.259 ± 0.11
UAGUAGCAAUAUUACGAUAC | -2.73 ± 0.44 | 
AACGAGCAAUAUUACGAUGA | -3.91 ± 0.46 | -2.08 ± 0.22
AGAAAGCAAUAUUACGGUUC | -2.72 ± 0.12 | -1.83 ± 0.13
CCACAGCAAUAUUACGCAGC | -3.88 ± 0.22 | -2.83 ± 0.25
GCCGAGCAAUAUUACGUGUC | -3.23 ± 0.14 | -1.64 ± 0.12
AUGCAGCAAUAUUACGAAGU | -2 ± 0.15 | -1.75 ± 0.12
